According to patent US20100196390A1 (RINAT NEUROSCIENCE, published 2010):

Target: TrkB (Homo sapiens (Human), UniProt Q16620 32-430)
Test: koff of Fab at 25 C; T1/2=Log2/koff
Procedure, shortened: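 Monovalent Fab fragments were tested at 25° C by surface plasmon resonance on a Biacore instrument, against TrkB extracellular-domain monomer amine-coupled to the chip at low capacity. Fabs were injected low to high as a 3-fold serial dilution from 100 nM for 84 sec, with a 10 minute dissociation after the top sample. The dissociation half-life was calculated from koff, which was fitted to a Langmuir binding model in BIAevaluation. The formula used was T1/2 = Log 2/koff.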

TrkB, sequence (Q16620 32-430 limits assumed): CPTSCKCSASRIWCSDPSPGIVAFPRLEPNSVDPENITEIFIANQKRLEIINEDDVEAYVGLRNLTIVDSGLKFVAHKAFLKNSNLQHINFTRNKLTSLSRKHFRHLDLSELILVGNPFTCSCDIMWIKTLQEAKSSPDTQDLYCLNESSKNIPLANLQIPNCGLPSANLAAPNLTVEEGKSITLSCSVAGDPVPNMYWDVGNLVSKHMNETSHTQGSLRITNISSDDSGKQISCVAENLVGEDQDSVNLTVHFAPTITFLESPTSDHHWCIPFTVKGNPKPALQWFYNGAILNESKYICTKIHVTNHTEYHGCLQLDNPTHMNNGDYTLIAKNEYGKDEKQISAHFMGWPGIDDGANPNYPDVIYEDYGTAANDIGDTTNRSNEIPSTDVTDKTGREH

T1/2	Binder
10.8 min	4B12-23 (Fab, V domains shown, Fab) VH: QVQLVQSGAEVKKPGASVKVSCKASGYTFTNYDIIWVRQAPGQGLEWMGYINPYNGRREYNEKFKGRVTMTRDTSTSTVYMELSSLRSEDTAVYYCARLLKYRAFRYYAIDYWGQGTTVTVSS VL: DIQMTQSPSSLSASVGDRVTITCRASEPVYSNVAWYQQKPGKAPKLLIYAASNLQSGVPSRFSGSGSGTDYTFTISSLQPEDIATYYCQHFWGSPFTFGQGTKLEIK
6 min	4B12-24 (Fab, V domains shown, Fab) VH: QVQLVQSGAEVKKPGASVKVSCKASGYTFTNYDIIWVRQAPGQGLEWMGYINPYNGRREYNEKFKGRVTMTRDTSTSTVYMELSSLRSEDTAVYYCARLLKYRRFSYYAIDYWGQGTTVTVSS VL: DIQMTQSPSSLSASVGDRVTITCRASEPVYSNVAWYQQKPGKAPKLLIYAASNLQSGVPSRFSGSGSGTDYTFTISSLQPEDIATYYCQHFWGSPFTFGQGTKLEIK
1.36 min	5-B1 (Fab, V domains shown, Fab) VH: QVQLVQSGAEVKKPGASVKVSCKASGYTFTNYVILWVRQAPGQGLEWMGYINPYNDGTKYNEKFKGRVTMTRDTSTSTVYMELSSLRSEDTAVYYCARLLKYRRFTYYAIHYWGQGTTVTVSS VL: DIQMTQSPSSLSASVGDRVTITCRASENVYSNLAWYQQKPGKAPKLLIYAASNLQSGVPSRFSGSGSGTDFTFTISSLQPEDIATYYCQHFWYSPFTFGQGTKLEIK
0.5 min	4B12-27 (Fab, V domains shown, Fab) VH: QVQLVQSGAEVKKPGASVKVSCKASGYTFTNYDIIWVRQAPGQGLEWMGYINPYNGRREYNEKFKGRVTMTRDTSTSTVYMELSSLRSEDTAVYYCARLLKARRFRYYAIDYWGQGTTVTVSS VL: DIQMTQSPSSLSASVGDRVTITCRASEPVYSNVAWYQQKPGKAPKLLIYAASNLQSGVPSRFSGSGSGTDYTFTISSLQPEDIATYYCQHFWGSPFTFGQGTKLEIK
1.1 min	4B12-25 (Fab, V domains shown, Fab) VH: QVQLVQSGAEVKKPGASVKVSCKASGYTFTNYDIIWVRQAPGQGLEWMGYINPYNGRREYNEKFKGRVTMTRDTSTSTVYMELSSLRSEDTAVYYCARLLRYRRFRYYAIDYWGQGTTVTVSS VL: DIQMTQSPSSLSASVGDRVTITCRASEPVYSNVAWYQQKPGKAPKLLIYAASNLQSGVPSRFSGSGSGTDYTFTISSLQPEDIATYYCQHFWGSPFTFGQGTKLEIK
8.1 min	4B12-26 (Fab, V domains shown, Fab) VH: QVQLVQSGAEVKKPGASVKVSCKASGYTFTNYDIIWVRQAPGQGLEWMGYINPYNGRREYNEKFKGRVTMTRDTSTSTVYMELSSLRSEDTAVYYCARLLKYRRFAYYAIDYWGQGTTVTVSS VL: DIQMTQSPSSLSASVGDRVTITCRASEPVYSNVAWYQQKPGKAPKLLIYAASNLQSGVPSRFSGSGSGTDYTFTISSLQPEDIATYYCQHFWGSPFTFGQGTKLEIK
5.4 min	4B12-28 (Fab, V domains shown, Fab) VH: QVQLVQSGAEVKKPGASVKVSCKASGYTFTNYDIIWVRQAPGQGLEWMGYINPYNGRREYNEKFKGRVTMTRDTSTSTVYMELSSLRSEDTAVYYCARLLKYRRERYYAIDYWGQGTTVTVSS VL: DIQMTQSPSSLSASVGDRVTITCRASEPVYSNVAWYQQKPGKAPKLLIYAASNLQSGVPSRFSGSGSGTDYTFTISSLQPEDIATYYCQHFWGSPFTFGQGTKLEIK
5.6 min	4B12-29 (Fab, V domains shown, Fab) VH: QVQLVQSGAEVKKPGASVKVSCKASGYTFTNYDIIWVRQAPGQGLEWMGYINPYNGRREYNEKFKGRVTMTRDTSTSTVYMELSSLRSEDTAVYYCARLLKYRRARYYAIDYWGQGTTVTVSS VL: DIQMTQSPSSLSASVGDRVTITCRASEPVYSNVAWYQQKPGKAPKLLIYAASNLQSGVPSRFSGSGSGTDYTFTISSLQPEDIATYYCQHFWGSPFTFGQGTKLEIK
